Test results taken from patent US20040116675A1 (published 2004).

Legend:
[1] = biological target: T1, CD28 on P815/CD28+ cells (P815 mouse mastocytoma stably transfected with CD28) (human, UniProt P10747 19-220); assay: competition against ^125I-labeled MuTN228 on P815/CD28+ cells, Expt 2
T1 construct: whole, on cells; also called CD28 antigen; CD28 molecules on P815/CD28^+ cells

[2] = biological target: T2, sCD28-Fc (extracellular domains of CD28 combined with the CH2 and CH3 domains of IgG1) (human, UniProt P10747 19-152); assay: ELISA competition on coated sCD28-Fc against MuTN228-biotin, Expt 2
T2 construct: extracellular domain; not shown: CH2 and CH3 domains of IgG1

[3] = biological target: T1, CD28 on P815/CD28+ cells (P815 mouse …); assay: competition against ^125I-labeled MuTN228 on P815/CD28+ cells, Expt 1
[4] = biological target: T1, CD28 on P815/CD28+ cells (P815 mouse …); assay: competition against ^125I-labeled MuTN228 on P815/CD28+ cells, Expt 3
[5] = biological target: T2, sCD28-Fc (extracellular domains of CD28 …); assay: ELISA competition on coated sCD28-Fc against MuTN228-biotin, Expt 1
[6] = biological target: T1, CD28 on P815/CD28+ cells (P815 mouse …); assay: competition against ^125I-labeled MuTN228 on P815/CD28+ cells, reference MuTN228
[7] = biological target: T2, sCD28-Fc (extracellular domains of CD28 …); assay: ELISA competition on coated sCD28-Fc against MuTN228-biotin, average of 3 experiments (Std. Dev. 0.14)
[8] = biological target: T2, sCD28-Fc (extracellular domains of CD28 …); assay: ELISA competition on coated sCD28-Fc against MuTN228-biotin, reference MuTN228
[9] = biological target: T1, CD28 on P815/CD28+ cells (P815 mouse …); assay: competition against ^125I-labeled MuTN228 on P815/CD28+ cells, average of 3 experiments (St. Dev. 0.26)

B1: HuTN228 (humanized TN228-IgG2M3) (antibody, V domains shown)
VH: QVQLQESGPGLVKPSETLSLTCAVSGFSLTSYGVHWIRQPPGKGLEWLGVIWPGGGTNFNSALMSRLTISEDTSKNQVSLKLSSVTAADTAVYYCARDRAYGNYLYAMDYWGQGTLVTVSS
VL: DIQMTQSPSSLSASVGDRVTITCRASESVEYYVTSLMQWYQQKPGKAPKLLIYAASNVDSGVPSRFSGSGSGTDFTLTISSLQPEDIATYYCQQSRKVPFTFGGGTKVEIK
IC50 [1]: 2.43 nM
IC50 [2]: 0.64 µg/mL
IC50 [3]: 2.65 nM
IC50 [4]: 2.13 nM
IC50 [5]: 0.37 µg/mL
fold less apparent binding affinity than MuTN228 [6]: ~2.4 fold
IC50 [7]: 0.5 µg/mL
fold less relative binding than MuTN228 [8]: 2.6 fold
IC50 [9]: 2.4 nM
